Laboratory results from patent US7902330.
Starred links: 1 amine or outer side, 2 acyl side, 3 side chain; linkers in the order of their positions; H or OH if unused. Non-standard residues stand in square brackets, D forms with d. No end group written: not given here. *: point of attachment. 4‑nitrohippuryl = O=C(NCC(=O)*)c1ccc([N+](=O)[O-])cc1; Benzoyl(4-(pyrrol-1-yl)) = O=C(c1ccc(-n2cccc2)cc1)*; bis(2,3-dihydroxybenzyl) = not defined here; 10‑hydroxydecanoyl = O=C(CCCCCCCCCO)*; Cysteamide = C(CS[*:3])N[*:1]; Dap = NC[C@H](N)C(=O)O

Legend:
other PKC isoforms = assay: cell-based or functional assay
[1] = biological target: T1, acetyl-Pro-Arg-Lys-Arg-Glu-Gly-Ser-Val-Arg-Arg-Arg-NH2
T1 chain: PRKREGSVRRR

[2] = biological target: protein kinase C δ, Q05655; assay: cell-based or functional assay
a subset of other PKCs = assay: cell-based or functional assay

## Ac-ARRGALR[Dap](Benzoyl(4-(pyrrol-1-yl)))A-Cysteamide [compound 3 (lead from library III)]
Other PKC isoforms
  selectivity for PKCα versus other PKC isoforms: < 3 fold

B1: protein kinase C ε (protein)
chain: MVVFNGLLKIKICEAVSLKPTAWSLRHAVGPRPQTFLLDPYIALNVDDSRIGQTATKQKTNSPAWHDEFVTDVCNGRKIELAVFHDAPIGYDDFVANCTIQFEELLQNGSRHFEDWIDLEPEGRVYVIIDLSGSSGEAPKDNEERVFRERMRPRKRQGAVRRRVHQVNGHKFMATYLRQPTYCSHCRDFIWGVIGKQGYQCQVCTCVVHKRCHELIITKCAGLKKQETPDQVGSQRFSVNMPHKFGIHNYKVPTFCDHCGSLLWGLLRQGLQCKVCKMNVHRRCETNVAPNCGVDARGIAKVLADLGVTPDKITNSGQRRKKLIAGAESPQPASGSSPSEEDRSKSAPTSPCDQEIKELENNIRKALSFDNRGEEHRAASSPDGQLMSPGENGEVRQGQAKRLGLDEFNFIKVLGKGSFGKVMLAELKGKDEVYAVKVLKKDVILQDDDVDCTMTEKRILALARKHPYLTQLYCCFQTKDRLFFVMEYVNGGDLMFQIQRSRKFDEPRSRFYAAEVTSALMFLHQHGVIYRDLKLDNILLDAEGHCKLADFGMCKEGILNGVTTTTFCGTPDYIAPEILQELEYGPSVDWWALGVLMYEMMAGQPPFEADNEDDLFESILHDDVLYPVWLSKEAVSILKAFMTKNPHKRLGCVASQNGEDAIKQHPFFKEIDWVLLEQKKIKPPFKPRIKTKRDVNNFDQDFTREEPVLTLVDEAIVKQINQEEFKGFSYFGEDLMP
[1]
  Km of the peptide substrate: 5.9 µM (PKCε)

## Ac-RRQG[Dap](Ac)FMYF-Cysteamide [Compound A (diacetylated consensus derivative)]
[2]
  IC50, PKC kinase assay: 50 µM

## Ac-RRQG[Dap](10‑hydroxydecanoyl)FMYF-Cysteamide [Compound B]
A subset of other PKCs
  selectivity for PKC ζ versus a subset of other PKCs: < 10 fold

B2: Compound C (peptide)
peptide: Ac-RRQG[Dap](4‑nitrohippuryl)FMYF-Cysteamide
SMILES: CSCC[C@H](NC(=O)[C@H](Cc1ccccc1)NC(=O)[C@H](CNC(=O)CNC(=O)c1ccc([N+](=O)[O-])cc1)NC(=O)CNC(=O)[C@H](CCC(N)=O)NC(=O)[C@H](CCCNC(=N)N)NC(=O)[C@H](CCCNC(=N)N)NC(C)=O)C(=O)N[C@@H](Cc1ccc(O)cc1)C(=O)N[C@@H](Cc1ccccc1)C(=O)NCCS
A subset of other PKCs
  selectivity for PKC ζ versus a subset of other PKCs: < 10 fold

## H-RRQG[Dap]FMYF-Cysteamide (not fully specified (residue 5)) [Compound E (nonacylated free amine)]
[2]
  IC50, PKC kinase assay (33P, peptide substrate): 0.025 µM
  Selectivity (IC50 relative to PKC βI = 1): 3.1 fold

## {bis(2,3-dihydroxybenzyl)}-RRQG[Dap](4‑nitrohippuryl)FMYF-Cysteamide (reading uncertain) [Compound G (doubly alkylated analogue of F)]
[2]
  Fold selectivity (IC50), PKC ζ = 1: 693 fold
  IC50, PKC kinase assay (33P, peptide substrate): 5.2 µM

## ARRGALR[Dap](Benzoyl(4-(pyrrol-1-yl)))A-Cysteamide (also: further groups not given here) [compound 6 (primary lead from library IV)]
[2]
  selectivity for PKCα versus this isoform: 2730 fold
